From article PMC10755861, “Structural analysis and functional evaluation of the disordered ß–hexosyltransferase region from Hamamotoa (Sporobolomyces) singularis” (Frontiers in Bioengineering and Biotechnology, 2023)

How the values were obtained:
[1] = target: the molecule itself; experiment: SEC; purified variants; single peak, retention time 12.5 min, calculated Mw 150 kDa; data not shown
[2] = target: the molecule itself; experiment: SAXS; rBHT(23–594)-HIS in solution at 1 mg/mL and 4 mg/mL; molecular mass by the method of Rambo and Tainer

B1: rBHT(32–594)-HIS, recombinant ß-hexosyltransferase from Hamamotoa (Sporobolomyces) singularis, residues 32–594 (enzyme, UniProt Q564N5 32-594, looked up)
chain: SLTSNYETPSPTAIPLEPTPTATGTAELDALWNLVEAQYPVQTAAVTTLVTVPDDYKFEADPPSYALAGYETSEIAGLKFPKGFKFGVAGAAIQVEGAAKAEGRGPSTWDYLCHHYASTQCNNYDPDITTNHYYLYPLDFARLQHLGINTYSFSISWTRIYPLGAGYVNEAGLAHYDAVIHSAKKYGLEPVGTVFHWDTPLSLMLKYGAWQDTGDQIVKDFVTYATTVFKRYGNEVKTWFTFNEPRVFCSQNSGLPYNLTYPEGINSTSAVFRCTYNVLKAHGHAVKVYRDLVASGTIAAGEIGFKSDDNYPIPARPGNADDEESAKRHEAFRIGIFAQPVYGNGDYPDVVKETVGDMLPALTDEDKGYIKGSGDIFAIDGYRTDISHAALNGIANCIRNQSDPNWPVCEEGSDPFAHVYPSGFAIGQSADPLSSWLVNSAPFIRDQLKFLTQTYPAKGGIYFSEFGWAEDAEYDRQLLYQITWDGLRTQYLTDYLSQLLLAVHKDGINLRGALTWSFVDNWEWGLGMQQKFGFQFVNQSDPDLTRTFKLSAHAYAQFGRNHL
notes: ß-hexosyltransferase (BHT, BglA) of Hamamotoa (Sporobolomyces) singularis, 594-residue polypeptide, residues 32-594; Expressed behind the MFα pre-pro leader of pPIC9 (primer encodes KR-EAEA before residue 32; leftover leader residues are a surmise); Glycosylated enzyme; also called GS115::MFα-rBht(32–594)-HIS; JB223; not shown: His6, C-terminal, kept
- stoichiometry N [1]: 2

B2: rBHT(54–594)-HIS, recombinant ß-hexosyltransferase from Hamamotoa (Sporobolomyces) singularis, residues 54–594 (enzyme, UniProt Q564N5 54-594, looked up)
chain: TGTAELDALWNLVEAQYPVQTAAVTTLVTVPDDYKFEADPPSYALAGYETSEIAGLKFPKGFKFGVAGAAIQVEGAAKAEGRGPSTWDYLCHHYASTQCNNYDPDITTNHYYLYPLDFARLQHLGINTYSFSISWTRIYPLGAGYVNEAGLAHYDAVIHSAKKYGLEPVGTVFHWDTPLSLMLKYGAWQDTGDQIVKDFVTYATTVFKRYGNEVKTWFTFNEPRVFCSQNSGLPYNLTYPEGINSTSAVFRCTYNVLKAHGHAVKVYRDLVASGTIAAGEIGFKSDDNYPIPARPGNADDEESAKRHEAFRIGIFAQPVYGNGDYPDVVKETVGDMLPALTDEDKGYIKGSGDIFAIDGYRTDISHAALNGIANCIRNQSDPNWPVCEEGSDPFAHVYPSGFAIGQSADPLSSWLVNSAPFIRDQLKFLTQTYPAKGGIYFSEFGWAEDAEYDRQLLYQITWDGLRTQYLTDYLSQLLLAVHKDGINLRGALTWSFVDNWEWGLGMQQKFGFQFVNQSDPDLTRTFKLSAHAYAQFGRNHL
notes: ß-hexosyltransferase (BHT, BglA) of Hamamotoa (Sporobolomyces) singularis, 594-residue polypeptide, residues 54-594; Expressed behind the MFα pre-pro leader of pPIC9 (primer encodes KR-EAEA before residue 54; leftover leader residues are a surmise); Glycosylated enzyme; also called GS115::MFα-rBht(54–594)-HIS; JB224; not shown: His6, C-terminal, kept
- stoichiometry N [1]: 2

B3: rBHT(23–594)-HIS, recombinant ß-hexosyltransferase from Hamamotoa (Sporobolomyces) singularis, residues 23–594 (enzyme, UniProt Q564N5 23-594, looked up)
chain: VTYPGAIPLSLTSNYETPSPTAIPLEPTPTATGTAELDALWNLVEAQYPVQTAAVTTLVTVPDDYKFEADPPSYALAGYETSEIAGLKFPKGFKFGVAGAAIQVEGAAKAEGRGPSTWDYLCHHYASTQCNNYDPDITTNHYYLYPLDFARLQHLGINTYSFSISWTRIYPLGAGYVNEAGLAHYDAVIHSAKKYGLEPVGTVFHWDTPLSLMLKYGAWQDTGDQIVKDFVTYATTVFKRYGNEVKTWFTFNEPRVFCSQNSGLPYNLTYPEGINSTSAVFRCTYNVLKAHGHAVKVYRDLVASGTIAAGEIGFKSDDNYPIPARPGNADDEESAKRHEAFRIGIFAQPVYGNGDYPDVVKETVGDMLPALTDEDKGYIKGSGDIFAIDGYRTDISHAALNGIANCIRNQSDPNWPVCEEGSDPFAHVYPSGFAIGQSADPLSSWLVNSAPFIRDQLKFLTQTYPAKGGIYFSEFGWAEDAEYDRQLLYQITWDGLRTQYLTDYLSQLLLAVHKDGINLRGALTWSFVDNWEWGLGMQQKFGFQFVNQSDPDLTRTFKLSAHAYAQFGRNHL
modifications: N-glycosylation sites N289, N297, N431, N569 (NAG in the crystal structure); phosphorylation sites found in the crystal structure: T56, T74, T79
notes: Expressed behind the S. cerevisiae alpha factor pre-pro leader (MFα) of pPIC9; the forward primer encodes KR-EAEA before residue 23, so some leader residues (EAEA) may be left on the N-terminus after processing (surmise); Residues 23-53 lack electron density in PDB 7L74; also called rBHT(23–594)-6XHIS; BglA; source: K. phaffii GS115, secreted into the culture medium, purified (HISTrap HP Nickel …)
- stoichiometry N [2]: 2

B4: rBHT(57–594)-HIS, recombinant ß-hexosyltransferase from Hamamotoa (Sporobolomyces) singularis, residues 57–594 (enzyme, UniProt Q564N5 57-594, looked up)
chain: AELDALWNLVEAQYPVQTAAVTTLVTVPDDYKFEADPPSYALAGYETSEIAGLKFPKGFKFGVAGAAIQVEGAAKAEGRGPSTWDYLCHHYASTQCNNYDPDITTNHYYLYPLDFARLQHLGINTYSFSISWTRIYPLGAGYVNEAGLAHYDAVIHSAKKYGLEPVGTVFHWDTPLSLMLKYGAWQDTGDQIVKDFVTYATTVFKRYGNEVKTWFTFNEPRVFCSQNSGLPYNLTYPEGINSTSAVFRCTYNVLKAHGHAVKVYRDLVASGTIAAGEIGFKSDDNYPIPARPGNADDEESAKRHEAFRIGIFAQPVYGNGDYPDVVKETVGDMLPALTDEDKGYIKGSGDIFAIDGYRTDISHAALNGIANCIRNQSDPNWPVCEEGSDPFAHVYPSGFAIGQSADPLSSWLVNSAPFIRDQLKFLTQTYPAKGGIYFSEFGWAEDAEYDRQLLYQITWDGLRTQYLTDYLSQLLLAVHKDGINLRGALTWSFVDNWEWGLGMQQKFGFQFVNQSDPDLTRTFKLSAHAYAQFGRNHL
notes: ß-hexosyltransferase (BHT, BglA) of Hamamotoa (Sporobolomyces) singularis, 594-residue polypeptide, residues 57-594; Expressed behind the MFα pre-pro leader of pPIC9 (primer encodes KR-EAEA before residue 57; leftover leader residues are a surmise); Glycosylated enzyme; also called GS115::MFα-rBht(57–594)-HIS; JB225; not shown: His6, C-terminal, kept
- stoichiometry N [1]: 2
